Source: patent US20200270347A1 (Hoffmann-La Roche, published 2020)
Changes are numbered by the printed parent chain. In names and notes the source's numbering stands.

B1: TYRP1 IgG (antibody, V domains shown)
VH: QVQLVQSGAEVKKPGASVKVSCKASGFNIKDYFLHWVRQAPGQGLEWMGWINPDNGNTVYAQKFQGRVTMTADTSTSTVYMELSSLRSEDTAVYYCTRRDYTYEKAALDYWGQGTLVTVSS
VL: DIQMTQSPSSLSASVGDRVTITCRASGNIYNYLAWYQQKPGKVPKLLIYDAKTLADGVPSRFSGSGSGTDFTLTISSLQPEDVATYYCQHFWSLPFTFGQGTKLEIK
notes: IgG format; constant regions not specified
B2: TYRP1 Fab fragment (humanized TA99 TYRP1 binder) (Fab, V domains shown)
VH: B1 VH
VL: B1 VL
notes: Fab prepared by plasmin digestion of the corresponding antibody; also called TYRP1 Fab fragments
B3: TYRP1 TCB CD3opt (bispecific antibody, human IgG1, kappa, L234A L235A)
heavy 1: not shown
heavy 2: QVQLVQSGAEVKKPGASVKVSCKASGFNIKDYFLHWVRQAPGQGLEWMGWINPDNGNTVYAQKFQGRVTMTADTSTSTVYMELSSLRSEDTAVYYCTRRDYTYEKAALDYWGQGTLVTVSSASTKGPSVFPLAPSSKSTSGGTAALGCLVEDYFPEPVTVSWNSGALTSGVHTFPAVLQSSGLYSLSSVVTVPSSSLGTQTYICNVNHKPSNTKVDEKVEPKSCDKTHTCPPCPAPEAAGGPSVFLFPPKPKDTLMISRTPEVTCVVVDVSHEDPEVKFNWYVDGVEVHNAKTKPREEQYNSTYRVVSVLTVLHQDWLNGKEYKCKVSNKALGAPIEKTISKAKGQPREPQVCTLPPSRDELTKNQVSLSCAVKGFYPSDIAVEWESNGQPENNYKTTPPVLDSDGSFFLVSKLTVDKSRWQQGNVFSCSVMHEALHNHYTQKSLSLSP
light 1: DIQMTQSPSSLSASVGDRVTITCRASGNIYNYLAWYQQKPGKVPKLLIYDAKTLADGVPSRFSGSGSGTDFTLTISSLQPEDVATYYCQHFWSLPFTFGQGTKLEIKRTVAAPSVFIFPPSDRKLKSGTASVVCLLNNFYPREAKVQWKVDNALQSGNSQESVTEQDSKDSTYSLSSTLTLSKADYEKHKVYACEVTHQGLSSPVTKSFNRGEC
light 2: EVQLLESGGGLVQPGGSLRLSCAASGFQFSSYAMNWVRQAPGKGLEWVSRIRSKYNNYATYYADSVKGRFTISRDDSKNTLYLQMNSLRAEDTAVYYCVRHTTFPSSYVSYYGYWGQGTLVTVSSASVAAPSVFIFPPSDEQLKSGTASVVCLLNNFYPREAKVQWKVDNALQSGNSQESVTEQDSKDSTYSLSSTLTLSKADYEKHKVYACEVTHQGLSSPVTKSFNRGEC
notes: two TYRP1 Fabs, one CD3opt crossover Fab
B4: TYRP1 TCB CD3orig (bispecific antibody, human IgG1, kappa, L234A L235A)
heavy 1: not shown
heavy 2: B3 heavy 2
light 1: B3 light 1
light 2: B3 light 2 with Q28T, S31T, T102G, T103N, P105G, S106N, Y111W, Y112F, G113A
notes: 2+1 IgG CrossFab, inverted, with charge modifications
B5: CD3opt human IgG1 PGLALA (antibody, V domains shown)
VH: EVQLLESGGGLVQPGGSLRLSCAASGFQFSSYAMNWVRQAPGKGLEWVSRIRSKYNNYATYYADSVKGRFTISRDDSKNTLYLQMNSLRAEDTAVYYCVRHTTFPSSYVSYYGYWGQGTLVTVSS
VL: QAVVTQEPSLTVSPGGTVTLTCGSSTGAVTTSNYANWVQEKPGQAFRGLIGGTNKRAPGTPARFSGSLLGGKAALTLSGAQPEDEAEYYCALWYSNLWVFGGGTKLTVLR
notes: Human IgG1 format with P329G L234A L235A (PGLALA); also called CD3opt IgG PGLALA
B6: CD3orig human IgG1 PGLALA (antibody, V domains shown)
VH: not shown
VL: B5 VL
notes: Human IgG1 format with P329G L234A L235A (PGLALA) in the Fc by the text; also called CD3orig IgG PGLALA
B7: EGFRvIII antibody P063.056 IgG1 PGLALA (antibody, V domains shown)
VH: EVQLVQSGAEVKKPGESLKISCKGSGYSFDSYWIAWVRQMPGKGLEWMGVIHPYDSDTRYSPSFQGQVTISADKSISTAYLQWSSLKASDTAMYYCARVSRSSYAFDYWGQGTLVTVSS
VL: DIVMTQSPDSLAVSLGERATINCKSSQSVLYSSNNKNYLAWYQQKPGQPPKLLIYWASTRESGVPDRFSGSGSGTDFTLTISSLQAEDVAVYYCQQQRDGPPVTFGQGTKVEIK
notes: Anti-EGFRvIII PGLALA IgG (human IgG1)
B8: EGFRvIII antibody P064.078 IgG1 PGLALA (antibody, V domains shown)
VH: B7 VH with S102L, F106L
VL: not shown
notes: as for B7
B9: EGFRvIII antibody P065.036 IgG1 PGLALA (antibody, V domains shown)
VH: B7 VH with F106L
VL: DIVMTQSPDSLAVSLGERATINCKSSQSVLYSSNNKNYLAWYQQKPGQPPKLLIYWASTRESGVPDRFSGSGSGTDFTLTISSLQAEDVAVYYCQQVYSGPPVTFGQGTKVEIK
notes: as for B7

How the values were obtained:
[1] = target: T1, recombinant TYRP1 (Sino Biologicals) (human, UniProt P17643 25-477, limits assumed); assay: SPR, relative active concentration as for CD3, with recombinant TYRP1 (Sino Biologicals) as antigen; sample: unstressed
T1 construct: Bought protein; also called human TYRP1

[2] = target: T1, recombinant TYRP1 (Sino Biologicals); assay: SPR, relative active concentration as for CD3, with recombinant TYRP1 (Sino Biologicals) as antigen; sample: 14d pH 6.0, 40°C
[3] = target: T1, recombinant TYRP1 (Sino Biologicals); assay: SPR, relative active concentration as for CD3, with recombinant TYRP1 (Sino Biologicals) as antigen; sample: 14d pH 7.4, 37°C
[4] = target: T2, Human TYRP1 ECD-Fc(knob)-Avi / Fc(hole) (human, UniProt P01857 104-328 = IgG part); assay: SPR, TYRP1 ECD-Fc captured with anti-PGLALA antibody, Fab as analyte, 1:1 Langmuir; human TYRP1
T2 construct: Fc with knob-into-hole and PG LALA modifications, C-terminal Avi-tag; also called monomeric fusion of the human TYRP1 extracellular domain to a human Fc-domain

[5] = target: Cynomolgus TYRP1 ECD-Fc(knob)-Avi / Fc(hole) (cynomolgus, UniProt P01857 104-328 = IgG part); assay: SPR, TYRP1 ECD-Fc captured with anti-PGLALA antibody, Fab as analyte, 1:1 Langmuir; cynomolgus TYRP1
[6] = target: Mouse TYRP1 ECD-Fc(knob)-Avi / Fc(hole) (mouse, UniProt P01857 104-328 = IgG part); assay: SPR, TYRP1 ECD-Fc captured with anti-PGLALA antibody, Fab as analyte, 1:1 Langmuir; mouse TYRP1
[7] = target: TYRP1 on the melanoma cell line M150543 (human, UniProt P17643 25-537); assay: cell-based or functional assay
[8] = target: T3, heterodimer of human CD3 delta and CD3 epsilon ectodomains fused to a human Fc domain with knob-into-hole … (human); assay: SPR, relative active concentration after stress
T3 construct: Each entry is the whole fusion chain (ectodomain, stalk, Fc, Avi-tag); also called recombinant CD3; recombinant human CD3

[9] = target: T4, heterodimer of cynomolgus CD3 delta and CD3 epsilon ectodomains fused to a human Fc domain with … (cynomolgus); assay: SPR, TCB captured with anti-PGLALA antibody, CD3 antigen as analyte, 1:1 Langmuir
T4 construct: Each entry is the whole fusion chain; also called Cynomolgus CD3 epsilon stalk-Fc(knob)-Avi / Cynomolgus CD3 delta stalk-Fc(hole)-Avi

[10] = target: T3, heterodimer of human CD3 delta and CD3 …; assay: as above
[11] = target: T5, human CD3 expressed on Jurkat NFAT reporter cells (human, UniProt P07766 23-207); assay: flow cytometry on Jurkat NFAT cells, PE-labelled anti-human Fc secondary antibody
T5 construct: CD3 complex on cells; also called CD3 on Jurkat cells; CD3 expressing cells
T5 sequence (P07766 23-207 limits assumed): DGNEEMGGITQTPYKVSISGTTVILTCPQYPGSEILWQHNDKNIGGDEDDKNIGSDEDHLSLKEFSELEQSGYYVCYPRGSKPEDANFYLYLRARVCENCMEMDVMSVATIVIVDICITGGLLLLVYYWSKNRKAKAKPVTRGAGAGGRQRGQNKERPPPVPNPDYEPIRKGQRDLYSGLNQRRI

[12] = target: T6, EGFRvIII-ECD avi his (human); assay: SPR, ECD antigen captured with anti-His, single injection of antibody at 500 nM
T6 construct: Extracellular domain of human EGFRvIII fused to an Avi-tag and a His-tag at the C-terminus; the entry is the whole construct; also called recombinant EGFRvIII; EGFRvIII antigen

[13] = target: EGFRwt ECD antigen (His-tagged, captured with anti-His) (human, UniProt P00533 25-645); assay: as above
[14] = target: T7, wild-type EGFR on MKN-45 cells (human, UniProt P00533 25-1210); assay: flow cytometry on MKN-45 cells (wild-type EGFR), IgG PGLALA
T7 construct: MKN-45 is the wild-type EGFR line used to exclude crossreactivity; also called EGFRwt

[15] = target: T6, EGFRvIII-ECD avi his; assay: SPR, PGLALA IgG captured with anti-PGLALA antibody, EGFRvIII-ECD avi his as analyte, 1:1 Langmuir, 25° C.
[16] = target: T8, EGFRvIII expressed on the cell surface (CHO-EGFRvIII, DK-MG, U87MG-EGFRvIII cells) (human, UniProt P00533 298-1210); assay: flow cytometry on U87MG-EGFRvIII cells, IgG PGLALA
T8 construct: The cell line of each result is named under assay; Species is stated for the U87 transfectant (human EGFRvIII protein) and the entry; also called EGFRvIII positive cells

Binder | Tyrp1 Binding Activity (%) [1] | Tyrp1 Binding Activity (%) [2] | Tyrp1 Binding Activity (%) [3] | response units [12] | response units [13] | Kd [15] | further results
B1 | 100% | 97% | 101% | – | – | – | –
B2 | – | – | – | – | – | – | Kd [4]: 0.13 nM; Kd [5]: 0.18 nM; Kd [6]: 0.53 nM
B3 | 100% | 101% | 101% | – | – | – | EC50 of tumor cell killing at 48 h (LDH release), PBMC donor 1 [7]: 0.31 nM; EC50 of tumor cell killing at 48 h (LDH release), PBMC donor 2 [7]: 0.03 nM; EC50 of tumor cell killing at 48 h (LDH release), PBMC donor 3 [7]: 0.08 nM; binding activity to CD3 after 2 weeks at pH 7.4, 37° C., relative to 2 weeks at pH 6, -80° C. [8]: > 90%; Kd [9]: 20 nM; Kd [10]: 50 nM
B4 | 100% | 98% | 103% | – | – | – | EC50 of tumor cell killing at 48 h (LDH release), PBMC donor 1 [7]: 0.44 nM; EC50 of tumor cell killing at 48 h (LDH release), PBMC donor 2 [7]: 0.05 nM; EC50 of tumor cell killing at 48 h (LDH release), PBMC donor 3 [7]: 0.14 nM; Kd [10]: 50 nM
B5 | – | – | – | – | – | – | EC50 (read off the curve) [11]: ~0.5 nM; binding activity to CD3 after 2 weeks at pH 7.4, 37° C., relative to 2 weeks at pH 6, -80° C. [8]: > 90%
B6 | – | – | – | – | – | – | EC50 (read off the curve) [11]: ~0.8 nM
B7 | – | – | – | > 50 RU | < 5 RU | 10 nM | binding result [14]: no binding (tested: about 140 nM)
B8 | – | – | – | > 50 RU | > 5 RU | 15 nM | EC50 (read off the curve) [16]: ~3 nM
B9 | – | – | – | > 50 RU | > 5 RU | 10 nM | –
